From paper PMC5321513 (Structure (London, England : 1993), 2017)
Like-named read-outs stand apart in the source and are kept apart here. [ ]: non-standard residue; d: D form. pS = N[C@@H](COP(=O)(O)O)C(=O)O

T1: full-length human 14-3-3ζ (human, UniProt P63104 1-245)
T1 sequence (looked up): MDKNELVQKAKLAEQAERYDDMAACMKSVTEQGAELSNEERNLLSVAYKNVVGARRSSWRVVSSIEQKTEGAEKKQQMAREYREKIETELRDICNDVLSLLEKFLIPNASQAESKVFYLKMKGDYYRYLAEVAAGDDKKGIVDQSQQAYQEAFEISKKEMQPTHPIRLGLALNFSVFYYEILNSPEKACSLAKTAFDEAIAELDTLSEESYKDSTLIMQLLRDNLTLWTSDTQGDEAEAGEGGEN

T2: 14-3-3τ (1-230) (human, UniProt P27348 1-230)
T2 sequence: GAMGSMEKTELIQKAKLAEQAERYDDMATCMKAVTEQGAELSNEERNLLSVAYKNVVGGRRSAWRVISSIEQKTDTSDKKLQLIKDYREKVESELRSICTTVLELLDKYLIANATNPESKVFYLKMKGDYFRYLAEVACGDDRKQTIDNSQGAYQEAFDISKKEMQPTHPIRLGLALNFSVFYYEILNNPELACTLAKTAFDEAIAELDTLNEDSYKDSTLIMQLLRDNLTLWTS

T3: 14-3-3ε (1-232) (human, UniProt P62258 1-232)
T3 sequence: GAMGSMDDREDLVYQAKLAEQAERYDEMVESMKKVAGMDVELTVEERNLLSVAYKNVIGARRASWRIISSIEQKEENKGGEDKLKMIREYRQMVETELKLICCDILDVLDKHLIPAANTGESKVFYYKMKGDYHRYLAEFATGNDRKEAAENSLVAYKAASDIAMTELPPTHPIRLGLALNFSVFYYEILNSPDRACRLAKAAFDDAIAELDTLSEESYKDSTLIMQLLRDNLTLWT

T4: 14-3-3β (1-232) (human, UniProt P31946 1-232)
T4 sequence: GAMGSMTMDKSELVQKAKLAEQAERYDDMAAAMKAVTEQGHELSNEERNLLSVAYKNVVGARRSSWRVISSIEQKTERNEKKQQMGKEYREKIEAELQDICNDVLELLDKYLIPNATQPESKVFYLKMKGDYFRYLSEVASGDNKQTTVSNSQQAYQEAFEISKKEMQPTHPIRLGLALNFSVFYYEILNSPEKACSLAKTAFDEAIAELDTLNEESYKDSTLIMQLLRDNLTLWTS

T5: 14-3-3η (1-235) (human, UniProt Q04917 1-235)
T5 sequence: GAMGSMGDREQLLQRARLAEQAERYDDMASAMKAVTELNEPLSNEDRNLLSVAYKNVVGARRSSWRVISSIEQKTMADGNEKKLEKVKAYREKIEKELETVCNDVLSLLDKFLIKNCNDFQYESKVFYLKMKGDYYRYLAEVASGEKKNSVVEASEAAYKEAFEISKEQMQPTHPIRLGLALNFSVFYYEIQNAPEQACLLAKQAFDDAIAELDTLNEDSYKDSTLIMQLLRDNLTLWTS

T6: full-length human 14-3-3γ (human, UniProt P61981 1-247)
T6 sequence (looked up): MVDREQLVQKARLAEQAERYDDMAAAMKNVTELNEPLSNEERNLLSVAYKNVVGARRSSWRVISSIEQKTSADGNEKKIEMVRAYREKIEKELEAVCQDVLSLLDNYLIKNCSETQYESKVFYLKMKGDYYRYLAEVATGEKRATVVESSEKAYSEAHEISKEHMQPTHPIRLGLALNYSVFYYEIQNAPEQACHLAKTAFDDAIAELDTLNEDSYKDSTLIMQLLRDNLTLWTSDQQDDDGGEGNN

B1: 14-3-3σ WT (1-231) (domain or fragment, human)
chain: GAMGSMERASLIQKAKLAEQAERYEDMAAFMKGAVEKGEELSCEERNLLSVAYKNVVGGQRAAWRVLSSIEQKSNEEGSEEKGPEVREYREKVETELQGVCDTVLGLLDSHLIKEAGDAESRVFYLKMKGDYYRYLAEVATGDDKKRIIDSARSAYQEAMDISKKEMPPTNPIRLGLALNFSVFHYEIANSPEEAISLAKTTFDEAMADLHTLSEDSYKDSTLIMQLLRDNLTLWT
B2: 14-3-3σ Clu1 (1-231) (domain or fragment, human)
chain: GPHMERASLIQKAKLAEQAERYEDMAAFMKGAVEKGEELSCEERNLLSVAYKNVVGGQRAAWRVLSSIEQKSNEEGSEEKGPEVREYREKVETELQGVCDTVLGLLDSHLIKEAGDAESRVFYLKMKGDYYRYLAEVATGDDKKRIIDSARSAYQEAMDISAAAMPPTNPIRLGLALNFSVFHYEIANSPEEAISLAKTTFDEAMADLHTLSEDSYKDSTLIMQLLRDNLTLWT

Columns and labels:
14-3-3σ Clu1 (1-231) [1] = molecular target: B2; experiment: crystal structure
[2] = molecular target: T1, full-length human 14-3-3ζ; experiment: SEC
14-3-3τ (1-230) = molecular target: T2, 14-3-3τ (1-230); experiment: SEC
14-3-3ε (1-232) = molecular target: T3, 14-3-3ε (1-232); experiment: SEC
14-3-3β (1-232) = molecular target: T4, 14-3-3β (1-232); experiment: SEC
14-3-3η (1-235) = molecular target: T5, 14-3-3η (1-235); experiment: SEC
[3] = molecular target: T6, full-length human 14-3-3γ; experiment: SEC
crystal structure = molecular target: the molecule itself; experiment: crystal structure
14-3-3σ Clu1 (1-231) [4] = molecular target: B2; experiment: crystal structure; remark: listed apart in the source
14-3-3σ WT (1-231) [5] = molecular target: B1; experiment: SEC
[6] = molecular target: T6, full-length human 14-3-3γ; experiment: ITC
14-3-3σ WT (1-231) [7] = molecular target: B1; experiment: ITC
14-3-3σ WT (1-231) [8] = molecular target: B1; experiment: other fluorescence titration

Binder | binding result [2] | binding result (14-3-3τ (1-230)) | binding result (14-3-3ε (1-232)) | binding result (14-3-3β (1-232)) | binding result (14-3-3η (1-235)) | binding result [3] | binding result (crystal structure) | also measured
full-length pHSPB6 (1-160) (natural protein, human, UniProt O14558 1-160, looked up, phosphoserine at 16) MEIPVPVQPSWLRRASAPLPGLSAPGRLFDQRFGEGLLEAELAALCPTTLAPYYLRAPSVALPVAQVPTDPGHFSVLLDVKHFSPEEIAVKVVGEHVEVHARHEERPDEHGFVAREFHRRYRLPPGVDPAAVTSALSPEGVLSIQAAPASAQAPPPAAAK | binds | binds | binds | binds | binds | binds |  | binding result (14-3-3σ Clu1 (1-231) [1]): binds
B1 |  |  |  |  |  |  | binds | 
pHSPB6 (1-149) (domain or fragment, human, UniProt O14558 1-149, looked up, phosphoserine at 16) MEIPVPVQPSWLRRASAPLPGLSAPGRLFDQRFGEGLLEAELAALCPTTLAPYYLRAPSVALPVAQVPTDPGHFSVLLDVKHFSPEEIAVKVVGEHVEVHARHEERPDEHGFVAREFHRRYRLPPGVDPAAVTSALSPEGVLSIQAAPA | binds | binds | binds | binds | binds | binds |  | binding result (14-3-3σ Clu1 (1-231) [4]): binds; binding result (14-3-3σ WT (1-231) [5]): binds
pHSPB6 (7-153) (domain or fragment, human, UniProt O14558 7-153, looked up, phosphoserine at 16) VQPSWLRRASAPLPGLSAPGRLFDQRFGEGLLEAELAALCPTTLAPYYLRAPSVALPVAQVPTDPGHFSVLLDVKHFSPEEIAVKVVGEHVEVHARHEERPDEHGFVAREFHRRYRLPPGVDPAAVTSALSPEGVLSIQAAPASAQA | binds | binds | binds | binds | binds | binds |  | binding result (14-3-3σ Clu1 (1-231) [1]): binds; binding result (14-3-3σ WT (1-231) [5]): binds
14-3-3σ Clu3 (1-231) (domain or fragment, human) GPHMERASLIQKAKLAEQAERYEDMAAFMKGAVEKGEELSCEERNLLSVAYKNVVGGQRAAWRVLSSIEQKSNEEGSAAAGPEVREYREKVETELQGVCDTVLGLLDSHLIKEAGDAESRVFYLKMKGDYYRYLAEVATGDDKKRIIDSARSAYQEAMDISKKEMPPTNPIRLGLALNFSVFHYEIANSPEEAISLAKTTFDEAMADLHTLSEDSYKDSTLIMQLLRDNLTLWT |  |  |  |  |  |  | binds | 
B2 |  |  |  |  |  |  | binds | 
HSPB6 ACD (residues 72 to 149) (domain or fragment, human, UniProt O14558 72-149, looked up) GHFSVLLDVKHFSPEEIAVKVVGEHVEVHARHEERPDEHGFVAREFHRRYRLPPGVDPAAVTSALSPEGVLSIQAAPA |  |  |  |  |  |  | binds | 
H-WLRRA[pS]APLPGLS-OH (peptide, UniProt O14558 11-23, looked up, SMILES CC(C)C[C@H](NC(=O)CNC(=O)[C@@H]1CCCN1C(=O)[C@H](CC(C)C)NC(=O)[C@@H]1CCCN1C(=O)[C@H](C)NC(=O)[C@H](COP(=O)(O)O)NC(=O)[C@H](C)NC(=O)[C@H](CCCNC(=N)N)NC(=O)[C@H](CCCNC(=N)N)NC(=O)[C@H](CC(C)C)NC(=O)[C@@H](N)Cc1c[nH]c2ccccc12)C(=O)N[C@@H](CO)C(=O)O) [pHSPB6(11-23) phosphopeptide] |  |  |  |  |  |  |  | Kd [6]: 2.3 ± 0.3 µM; stoichiometry N [6]: 1; Kd (14-3-3σ WT (1-231) [7]): 6.3 ± 0.5 µM; stoichiometry N (14-3-3σ WT (1-231) [7]): 1; IC50 (14-3-3σ WT (1-231) [8]): 28.9 ± 0.9 µM; Kd (14-3-3σ WT (1-231) [8]): 5.2 ± 0.5 µM
